Results as given in US20250043019A1 (Janssen / Centocor, published 2025).

T1: human CD79b on the cell surface (human, UniProt P40259 29-229)
T1 sequence: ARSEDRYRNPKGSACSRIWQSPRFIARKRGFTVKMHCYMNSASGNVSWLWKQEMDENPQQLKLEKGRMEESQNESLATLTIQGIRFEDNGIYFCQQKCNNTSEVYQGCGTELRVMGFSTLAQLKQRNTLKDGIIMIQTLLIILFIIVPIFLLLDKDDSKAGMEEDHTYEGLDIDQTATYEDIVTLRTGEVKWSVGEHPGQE


Legend:
[1] = biological target: T1, human CD79b on the cell surface; assay: cell-based or functional assay
[2] = biological target: T1, human CD79b on the cell surface; assay: cell-based or functional assay; remark: listed apart in the source

Row | Binder | IC50, T-cell killing of OCI-Ly10 (Incucyte) [1] [µM] | IC50, T-cell killing of HBL-1 (Incucyte) [2] [µM]
1 | 79C3B645 CD79bxCD3 bispecific antibody (bispecific antibody, human IgG1, lambda, L234A L235A) heavy: QVQLQQSGPGLVKPSQTLSLTCAISGDSVSSNSATWNWIRQSPSRGLEWLGRTYYRSKWYNDYTVSVKSRITINPDTSKNQFSLQLNSVTPEDTAVYYCTRVDIAFDYWGQGTLVTVSSASTKGPSVFPLAPSSKSTSGGTAALGCLVKDYFPEPVTVSWNSGALTSGVHTFPAVLQSSGLYSLSSVVTVPSSSLGTQTYICNVNHKPSNTKVDKKVEPKSCDKTHTCPPCPAPEAAGGPSVFLFPPKPKDTLMISRTPEVTCVVVSVSHEDPEVKFNWYVDGVEVHNAKTKPREEQYNSTYRVVSVLTVLHQDWLNGKEYKCKVSNKALPAPIEKTISKAKGQPREPQVYTLPPSREEMTKNQVSLSCAVKGFYPSDIAVEWESNGQPENNYKTTPPVLDSDGSFFLVSKLTVDKSRWQQGNVFSCSVMHEALHNRFTQKSLSLSPGK light: QTVVTQPPSVSEAPRQRVTISCSGSSSNIGNHGVNWYQQLPGKAPKLLIYNDDLLPSGVSDRFSGSTSGTSGSLAISGLQSEDEADYYCAAWDDSLNGVVFGGGTKLTVLGQPKAAPSVTLFPPSSEELQANKATLVCLISDFYPGAVTVAWKADSSPVKAGVETTTPSKQSNNKYAASSYLSLTPEQWKSHRSYSCQVTHEGSTVEKTVAPTECS EIVLTQSPATLSASPGERVTLSCSASSSVSYMNWYQQKPGQAPRRWIYDSSKLASGVPARFSGSGSGRDYTLTISSLEPEDFAVYYCQQWSRNPPTFGGGTKVEIKGGSEGKSSGSGSESKSTGGSQVQLVQSGAEVKKPGSSVKVSCKASGYTFTRSTMHWVRQAPGQGLEWMGYINPSSAYTNYAQKFQGRVTLTADKSTSTAYMELSSLRSEDTAVYYCASPQVHYDYGGFPYWGQGTLVTVSSEPKSSDKTHTCPPCPAPEAAGGPSVFLFPPKPKDTLMISRTPEVTCVVVSVSHEDPEVKFNWYVDGVEVHNAKTKPREEQYNSTYRVVSVLTVLHQDWLNGKEYKCKVSNKALPAPIEKTISKAKGQPREPQVYTLPPSREEMTKNQVSLWCLVKGFYPSDIAVEWESNGQPENNYKTTPPVLDSDGSFFLYSKLTVDKSRWQQGNVFSCSVMHEALHNHYTQKSLSLSPGK | 0.018 | 0.00719
2 | 79C3B605 CD79bxCD3 bispecific antibody (bispecific antibody, human IgG1, kappa, L234A L235A) heavy: QVQLQESGPGLVKPSETLSLTCSVSGASISSFYWSWIRQPADEGLEWIGRISPSGKTNYIPSLKSRIIMSLDASKNQFSLRLNSVTAADTAMYYCARGEYSGTYSYSFDVWGQGTMVTVSSASTKGPSVFPLAPSSKSTSGGTAALGCLVKDYFPEPVTVSWNSGALTSGVHTFPAVLQSSGLYSLSSVVTVPSSSLGTQTYICNVNHKPSNTKVDKKVEPKSCDKTHTCPPCPAPEAAGGPSVFLFPPKPKDTLMISRTPEVTCVVVSVSHEDPEVKFNWYVDGVEVHNAKTKPREEQYNSTYRVVSVLTVLHQDWLNGKEYKCKVSNKALPAPIEKTISKAKGQPREPQVYTLPPSREEMTKNQVSLSCAVKGFYPSDIAVEWESNGQPENNYKTTPPVLDSDGSFFLVSKLTVDKSRWQQGNVFSCSVMHEALHNRFTQKSLSLSPGK light: DIVMTQSPLSLSVTPGEPASISCRSSESLLDSEDGNTYLDWFLQKPGQSPQLLIYTLSYRASGVPDRFSGSGSDTDFTLHISSLEAEDVGLYYCMQRMEFPLTFGQGTKVEIKRTVAAPSVFIFPPSDEQLKSGTASVVCLLNNFYPREAKVQWKVDNALQSGNSQESVTEQDSKDSTYSLSSTLTLSKADYEKHKVYACEVTHQGLSSPVTKSFNRGEC EIVLTQSPATLSASPGERVTLSCSASSSVSYMNWYQQKPGQAPRRWIYDSSKLASGVPARFSGSGSGRDYTLTISSLEPEDFAVYYCQQWSRNPPTFGGGTKVEIKGGSEGKSSGSGSESKSTGGSQVQLVQSGAEVKKPGSSVKVSCKASGYTFTRSTMHWVRQAPGQGLEWMGYINPSSAYTNYAQKFQGRVTLTADKSTSTAYMELSSLRSEDTAVYYCASPQVHYDYGGFPYWGQGTLVTVSSEPKSSDKTHTCPPCPAPEAAGGPSVFLFPPKPKDTLMISRTPEVTCVVVSVSHEDPEVKFNWYVDGVEVHNAKTKPREEQYNSTYRVVSVLTVLHQDWLNGKEYKCKVSNKALPAPIEKTISKAKGQPREPQVYTLPPSREEMTKNQVSLWCLVKGFYPSDIAVEWESNGQPENNYKTTPPVLDSDGSFFLYSKLTVDKSRWQQGNVFSCSVMHEALHNHYTQKSLSLSPGK | 0.0543 | 0.0295
